Results taken from paper PMC8018905.
Where two headings read alike, the source gives them in different places.

Key:
[1] = molecular target: recombinant angiotensin-converting enzyme 2 (ACE2) (UniProt Q9BYF1); assay: electrochemical impedance spectroscopy
[2] = molecular target: recombinant angiotensin-converting enzyme 2 (ACE2) (UniProt Q9BYF1); assay: electrochemical impedance spectroscopy; remark: listed apart in the source

Chain of recombinant angiotensin-converting enzyme 2 (ACE2) (Q9BYF1 18-740): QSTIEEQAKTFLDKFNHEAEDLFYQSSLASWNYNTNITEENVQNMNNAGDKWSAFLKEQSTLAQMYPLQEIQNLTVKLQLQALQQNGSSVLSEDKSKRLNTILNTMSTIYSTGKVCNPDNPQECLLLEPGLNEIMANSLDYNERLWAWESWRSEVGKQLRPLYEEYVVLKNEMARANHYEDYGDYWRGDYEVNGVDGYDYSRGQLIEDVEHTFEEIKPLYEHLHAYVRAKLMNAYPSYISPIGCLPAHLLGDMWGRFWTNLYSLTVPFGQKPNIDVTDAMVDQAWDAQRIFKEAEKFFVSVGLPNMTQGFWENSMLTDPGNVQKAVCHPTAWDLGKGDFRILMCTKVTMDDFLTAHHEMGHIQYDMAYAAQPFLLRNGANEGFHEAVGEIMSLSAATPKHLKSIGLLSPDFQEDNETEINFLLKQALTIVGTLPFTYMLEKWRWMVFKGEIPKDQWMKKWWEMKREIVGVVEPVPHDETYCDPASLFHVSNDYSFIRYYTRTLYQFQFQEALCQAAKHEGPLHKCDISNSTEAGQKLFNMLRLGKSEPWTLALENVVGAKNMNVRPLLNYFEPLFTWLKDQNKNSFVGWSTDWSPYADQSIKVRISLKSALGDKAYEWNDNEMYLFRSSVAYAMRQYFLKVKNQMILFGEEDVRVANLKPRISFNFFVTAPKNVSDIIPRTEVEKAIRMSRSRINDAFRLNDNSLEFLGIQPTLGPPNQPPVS

recombinant SARS-CoV-2 S-protein receptor-binding domain (from UniProt P0DTC2) (domain or fragment; other documents disagree on this pair)
EC50 [1]: 1.74 µM
EC50 [2]: 5.1 µM
